± gives the standard deviation of the averaged measurements.
Test: total protein half-life in vivo (active degradation + dilution); higher = more stable protein
[1] = E. coli NCM3722 delta-clpP delta-lon delta-hslV, growth: N-lim chemostat, doubling time 6 h
[2] = E. coli NCM3722 delta-clpP, growth: N-lim chemostat, doubling time 6 h
[3] = E. coli NCM3722 delta-hslV, growth: N-lim chemostat, doubling time 6 h
[4] = E. coli NCM3722 delta-lon, growth: N-lim chemostat, doubling time 6 h
[5] = E. coli NCM3722 delta-smpB, growth: N-lim chemostat, doubling time 6 h
[6] = wild type E. coli NCM3722, growth: C-lim chemostat, doubling time 3 h
[7] = wild type E. coli NCM3722, growth: C-lim chemostat, doubling time 6 h
[8] = wild type E. coli NCM3722, growth: C-lim chemostat, doubling time 12 h
[9] = wild type E. coli NCM3722, growth: N-lim chemostat, doubling time 6 h
[10] = wild type E. coli NCM3722, growth: N-lim chemostat, doubling time 12 h
[11] = wild type E. coli NCM3722, growth: P-lim chemostat, doubling time 6 h

| Sequence | total protein half-life in vivo [1] | total protein half-life in vivo [2] | total protein half-life in vivo [3] | total protein half-life in vivo [4] | total protein half-life in vivo [5] | total protein half-life in vivo [6] | total protein half-life in vivo [7] | total protein half-life in vivo [8] | total protein half-life in vivo [9] | total protein half-life in vivo [10] | total protein half-life in vivo [11] | total protein half-life in vivo (wild type E. coli NCM3722, growth: P-lim chemostat, doubling time 12 h) |
| --- | --- | --- | --- | --- | --- | --- | --- | --- | --- | --- | --- | --- |
| MQSLTTALENLLRHLSQEIPATPGIRVIDIPFPLKDAFDALSWLASQQTYPQFYWQQRNGDEEAVVLGAITRFTSLDQAQRFLRQHPEHADLRIWGLNAFDPSQGNLLLPRLEWRRCGGKATLRLTLFSESSLQHDAIQAKEFIATLVSIKPLPGLHLTTTREQHWPDKTGWTQLIELATKTIAEGELDKVVLARATDLHFASPVNAAAMMAASRRLNLNCYHFYMAFDGENAFLGSSPERLWRRRDKALRTEALAGTVANNPDDKQAQQLGEWLMADDKNQRENMLVVEDICQRLQADTQTLDVLPPQVLRLRKVQHLRRCIWTSLNKADDVICLHQLQPTAAVAGLPRDLARQFIARHEPFTREWYAGSAGYLSLQQSEFCVSLRSAKISGNVVRLYAGAGIVRGSDPEQEWQEIDNKAAGLRTLLQME | 4.68 ± 0.47 h | > 8 h | 3.92 ± 0.49 h | 4.47 ± 0.15 h | 3.94 ± 0.32 h | 2.96 ± 0.1 h | 4.82 ± 0.16 h | 10.2 ± 0.62 h | 3.92 ± 0.21 h | 6.68 ± 0.27 h | 5.06 ± 0.77 h | 11.1 ± 0.5 h |
| MQEIMQFVGRHPILSIAWIALLVAVLVTTFKSLTSKVKVITRGEATRLINKEDAVVVDLRQRDDFRKGHIAGSINLLPSEIKANNVGELEKHKDKPVIVVDGSGMQCQEPANALTKAGFAQVFVLKEGVAGWAGENLPLVRGK [P0AG27] | 5.92 ± 0.38 h | 6.89 ± 0.76 h | 6.06 ± 0.078 h | 5.77 ± 1 h | 5.7 ± 0.28 h | 3.71 ± 0.18 h |  | 10.9 ± 1.4 h | 5.96 ± 0.49 h |  | 6.47 ± 0.095 h |  |
| MQERHTEQDYRALLIADTPIIDVRAPIEFEHGAMPAAINLPLMNNDERAAVGTCYKQQGSDAALALGHKLVAGEIRQQRMDAWRAACLQNPQGILCCARGGQRSHIVQSWLHAAGIDYPLVEGGYKALRQTAIQATIELAQKPIVLIGGCTGSGKTLLVQQQPNGVDLEGLARHRGSAFGRTLQPQLSQASFENLLAAEMLKTDARQNLRLWVLEDESRMIGSNHLPECLRERMTQAAIAVVEDPFEIRLERLNEEYFLRMHHDFTHAYGDEQGWQEYCEYLHHGLSAIKRRLGLQRYNELAARLDAALTTQLTTGSTDGHLAWLVPLLEEYYDPMYRYQLEKKAEKVVFRGEWAEVAEWVKAR | 4.83 ± 0.89 h | 4.43 ± 0.057 h | 4.35 ± 0.77 h | 4.417 ± 0.0075 h | 3.75 ± 0.5 h | 3.16 ± 0.1 h | 5.87 ± 0.98 h | 10.2 ± 1.6 h | 4.54 ± 0.24 h | 7.414 ± 0.067 h | 5.64 ± 0.47 h |  |

From the supplement of paper PMC11246515
